Source: the DeepSol protein solubility set

assay: soluble on expression in E. coli; label from the status in PepcDB or PDB records

| Sequence | soluble on expression in E. coli |
| --- | --- |
| MDVSMLQSPQKRIKTIQKLAVSKKDVHDFKDIFEMLEEQKEKRNINIIQYDSLDDLSGDWSEYTFFCGNFDSDLFRTLTKHQETQALFIIGASVLKNKLLKNEDLMTLRAARPLYCELMKDVTMKLAAEVPNKRELVDLVHYMGGSVRKDTVSRTNVFIAAKVEAKVQSISLVGVPTMRADWVTECWKHRDDSYFDVMEPCFVDKHRLGVFEGLSLFFHGFKQTEIDDMLRSLENTGGKLAPSPTLATHVVYNPDNDEVETLAVSSNQVHVTKEWFWVSLHRGCCAIEDNFALPTGKLHRKPLESSSVSSPIGKSLRSQNSRSLSSMRDCSVEGPTSLNMTPDYIYSNDDVENSCKSPRQPSKRLRVCMEMVETEKNYLSLLKLVVKFKEALECEISHNEFMSRSDVAMMFGKLDPILELHERIFARLTVMSNEANTLLTVVNGKKNDDKNLDFAQVWIDAKEEMKKAYPQYINSYDTIKRLFDKQDRENSKFHTFCKAKESNPEFHRLKLTDLMVKPVQRLPSVILLLKEMAKKSDSKLKNNAEEAAKAIDEVLKTANKTREKNDNFISHLSKFTDIENVPPILVAANRMFIRELVVSPIASTSPGLQQFAKMKLFLFHDVLIITKIRSEKNTMQRLARHASFASLHSRQRRPYRYIDQIQLNTMRSAFRIRAPDEIAKCLELQQQNGSTKPNVFVWCLIHRDEQGGDIDTVFESNDDEEVRDFLDDIHVKILSDCGRFFYSSDPSDMNEINDAMVSDMTTRYFRNLCGAKPQYGHGSQMNITEWSHNESFMPPPQSQSRMRRAFSNAQLTLATTLGFGRNQSRNNLGQINENTTFLQSPRVSCDPAALANMTSVGGLPGCQSESESTPKRGIRSRLTSTTFLGGRHNILGRNTSMRRQATGFAHSEKELPRSKTSSYRVTDI | not soluble |
| MGSDKIHHHHHHMTEADLFVSQFLTEKLTALFPNVPVLSEENCHISFEERKNWKEYWLIDPLDGTQQFINRTDQFSVLITLVRKNKPVLSVIHAPILSTTYYAMCDFGTFKKQLDQVKKLTKNTTNFDRPLRIAVGATTSQEKVRSILPKDFPCEFVVVGSSSLKSGLVAEGAVDCYVRLGQTGEWDTAGAEVLLGETHGAIFDSHFEPLTYNQRETLINPHFVMVGDQSFDWRSIFQFN | not soluble |
| MAEMDERFQQILSWQQMDQNKAISQILQESAMQKAAFEALQVKKDLMHRQIRSQIKLIETELLQLTQLELKRKSLDTESLQEMISEQRWALSSLLQQLLKEKQQREEELREILTELEAKSETRQENYWLIQYQRLLNQKPLSLKLQEEGMERQLVALLEELSAEHYLPIFAHHRLSLDLLSQMSPGDLAKVGVSEAGLQHEILRRVQELLDAARIQPELKPPMGEVVTPTAPQEPPESVRPSAPPAELEVQASECVVCLEREAQMIFLNCGHVCCCQQCCQPLRTCPLCRQDIAQRLRIYHSS | soluble |
| VTGVASAMAERLKEDGNNCFKKERFGAAIDAYTEAIALSPNVPAYWTNRALCHMKRKDWTKVEEDCRKAIQLVHNSVKAHYMLGLALLQKKEFTNGVKELQRALDLGRC | not soluble |
| RSFTAFLLFLPVGFLYPLAKKKELALQRQEELRRQFKEAVLILSSSLGAGYSVENAFAGSLRELEELYGREGMITKEFSYIAHQLRMNRTVETLLAEFADRSGLEEIKNFSDIFAVSKRSRGELVSVVNHTVHVISDRLQVREEILTMTAEKQFEQKIMNLVPYCIVIYIEFSSPGFFRQMYG | not soluble |
| MGSDKIHHHHHHMILQVQPAKLIKRYKRFLADIELNCGEETTIHCANTGAMKGCAEPDDTVWYTTSTNTKRKYPFSWEITQSQDDHFICVNTLRANQLVEEALHLDLIKELSGFNELKREVKYGNENSRVDFLATYNNAPDTYIEVKSVTLLESGHGYFPDAVTTRGQKHLRELMDMVAQGHKAVLLFAVLHSGINDISAASHVDPIYAKLLKEARLAGVEIIAYKAGFSLQLGELDVKLVEKIPFIER | not soluble |
| MAALRYRRFLKLCEEWPVDETKRGRDLGAYLRQRVAQAFREGENTQIAEPEACDQMYESLARLHSNYYKHKYPRPRDTSFSGLSVEEYKLILSTDTLEEFQEMNKSMWKKLQEKFAPTRPEEKHKAWTRVLSRPRT | soluble |
| MPLSPYLSFAGNCSDAIAYYQRTLGAELLYKISFGEMPKSAQDSAENCPSGMQFPDTAIAHANVRIAGSDIMMSDAIPSGKASYSGFTLVLDSQQVEEGKRWFDNLAANGKIEMAWQETFWAHGFGKVTDKFGVPWMINVVKQQPTQ | not soluble |
| MKKAVVLLSGGMDSATTLAIARQSGFACYALSIDYGQRHVAELAAAARIGQSLQVSDHQFLKLDLAVLASSVLTDISATVPLHGTSTGIPVTYVPARNTIMLALALAWAEVLGSHDIFIGVTAVDYSGYPDCRRDYIDAFEKMANLATKAGREGMVLTVHAPLIDLPKREIIQCGMELGIDYGLTVSCYQADEAGYACGQCDACHIRRAGFEAADIPDPTCYRNKQIS | not soluble |
| MYGRKLYNVDQTNVYASLMFETEFNKQNSFSAGLSFNYDAYDQHYRLENQTELPLIKAFAKEAVPGAYAQYTLNLNDQWMLMAGLRGDYSNEHGFFVTPRAHLKYNPNEYVHFRLSAGKGYRTNHVLAENNYLLSSSRKVEIAKGLDMEEAWNYGASVSTYVPVFGKTLNINAEYYYTDFLKQVVVDMDSNPHEVAFYNLDGRSYSHVFQVEASYPFFKGFTLTGAYRLTDAQTTYKGQRMEKPLTSKYKGLLTASYQTPLGIWQFDATLQLNGGGRMPSPYELADGQLSWERRYGSFEQLSAQITRYFRRWSVYIGGENLTNFKQKNPIIDAANPWGGNFDSTMIWGPVHGAKAYIGIRFNLARNE | not soluble |
| GSHMSLDNKPIMRVASIDIGSYSVRLTIAQIKDGKLSIILERGRITSLGTKVKETGRLQEDRIEETIQVLKEYKKLIDEFKVERVKAVATEAIRRAKNAEEFLERVKREVGLVVEVITPEQEGRYAYLAVAYSLKPEGEVCVVDQGGGSTEYVFGKGYKVREVISLPIGIVNLTETFFKQDPPTEEEVKRFFEFLEKELSKVKKPVDTIVGLGGTITTLAALEYNVYPYDPQKVHGKVLTYGQIKKWFDTFKEIPSEERSKRFRQVEDRRAKVILAGIGIFLKTLEIFEKDCLIVSDWGLREGVLVSEVLKENHS | soluble |
| GPGSMWGPNQEVAHPRHDGKSFYLPSTSAAGAAALGASLLPHSNLVCAPLNPHIAREPVDTATGDGDGTVRALLTRFRIENERLRDQVKAHVVQEALLTQRLQELSARNTALHLQDFRKRDNDAVVEKLKKQLEVKEMEVRALQLQVGELNGRISAYEEAISRPDHPQGLSANSMDRVRELICEALSSAGFLTRVANAVEHCHPSTHEVTDCPRSVEECTNHCLQAAMRGNKELPGETAARGHHVSCEELASALREEVLFCETVAVRVAAKLFMERSSADSSAKADRGTGLQHQEESAPPLARPTAECPAEAHELPQSDRRPRRKPAARPTVEDCEVQ | not soluble |
| MAIQGSRTEGLGGYTFDDLAVVMGTYNEEEAIGTVLDDIATVTDGRAEVICVDGSSDRTPEIARDHGATVIEQEPQGYGVAVREAVLTPDRPVVVTTDCDDTYPMERLPDFLAEINDGADVVSGDRLYYGAEQMPAMNKLGNELFALLASVLMGKRVHDTTTGMRAYRREVLQKIVWTENTGLSAELLMRPLMRGYDVRERPIEYDERKGETKLDPFSGGAAIAKSIVRVALEERFRLEHHHHHH | soluble |
| MAFNIESLLEKKSNPVEEGNDFEEENDSEKNGEEDEEEEEKNVIDGWTNMATSQLAMFAIANDLRTPTLVELQMLLGVSARKHDYKRSRKSVCERKPRQAYSARQLDRLETEFQTDKYLSVNKRIQLSQTLNLTETQIKTWFQNRRTKWKKQLTSSIRQMVKDAPTSTSVGVPFQSLLTPPTPPTTLACHVNSLFACEQ | not soluble |
| MSLAAGYGVPLEQGEHRLGSSRVVVETAGDGLVRYRREVDGGGSVELLFDGTVDLQPVPMYPIFKPLYVTRFILLRIEPRIVVSPGSERTFYTLIPVDTAIYAFPGDEPTIVDVIPMDDKPSLVLYGPPESGVVARLAISSVSPRPEEPSLGRALARIAVKNISGTPVTLSRILLDSAPLKLYFERGTWRAYTQELAVEVERYRGVVMYRQPFREGTMPISDPPEVRPPRFFQRTDMMWGVEGHHHHHH | not soluble |
| MGSDKIHHHHHHMKRDFLGRTLAVIEDLSVEEQMFLYEKTRELKQRWYSGEDVSDFRIKKRNVGIYIVFVEPSTRTKESFINAAKFHSGPNVKVNVFDSEHSSFNKQESYTDTFSMLTGYSDYSIFVVRTRLEGVCRLLERRISEFASRNGIEVPSFINAGDGKHEHPTQELLDEYTFLEQNGFDNSFIHVALVGDLLHGRTVHSKVNGLKIFKNVKVDLVAPEELMMPEHYVEKMKKNGFEVRIFSSIREYLDQKDVAKIWYFTRLQLERMGEDILEKVHVLREAVTFKKEYLDALPEGVKFYHPLPRHKVYPTIPNFLDTLPLNGWETQARNGYWVRIVLLSMFGGALEAPFDTSKKEEKPEEDFIIPAPITHGSKGVQKEGKRGIKPIENGTVIDHIAKGKTPEEIYSTILKIRKILRLYDVDSADGIFRSSDGSFKGYISLPDRYLSKKEIKKLSAISPNTTVNIIKNSTVVEKYRIKLPPTIYGFEELRCKNENCITNPAHGENASPSFVRNEKGQFICEYCETPHSFEEIWSI | not soluble |
| MNLVALAQLILFVLRNLNLKPRKHKPEEIALAIAAYVMGVQITKLNIPPSTLYYYTRKLGVKRRKDVRPRCPSCNSDRVIKNGSSRGKSKYKCKVCGRTFYGTASHRMSREQRERILREYTNRMSLRGISKVEGRPLTTVYSSVKRAALKAYVDLSILQAQLKAFRSKFAVLDESWTYVRVRRGPRRQNLWIWNALIDGVPFFVTGDRDYNTFRLLWLSLPKCEVHYTDDYPIYQVLYHHVVGKKYTHTVESYNSFCRSHLARLARDTKAVNRSRAMIDYSLALLNVMYPQVFTDEKTPLNLAYLSGVQYIRDHLILEHHHHHH | soluble |
| MGSDKIHHHHHHMYLGIDVGGTHTDAVVLDAQKRIQAWAKVPTLHHDLLSSVTQALDSVLQSVAAQDIVRLNLSTTLSTNAIVESKTEDVGVLVSSGPGIDPENFRQGGFFFPLSGSIDHRGKVIAAMEQDELAAAVRRCCDSGIRVYAAVGKFSTRNPDHEETMAHEAMQCGDFVSMGHRLSGQLSFPRRVATAYYNSAVWRLYNSFADAVESSARAKGVTAPVHILKADGGTMPLAVSRRMPVESILSGPAASVMGIVALYDIREDAVILDIGGTTTDIALFASGSPVIENDGISVGSYPTLVRALRTLSIGVGGDSRLRIAAGAVRVGPDRSGPCVANGGTHVALMDAMNYLEVAAVGDVEASREAVRQLASLWDMYPEKLAREALDTAVNTICAAVDRLLDEVNAQPVYTIIELLDGVKLNPGRVFVMGGPAAAFAPLLRNVMNRRIDVPRDHAVANAVGAALTRTTAELELFADTEKGLVFVPTLGLRREAPLGYNLDDAVADAGRYLTESLAGMGIHIRPEDVDVLEAGSFNMVDMYGGKGRNIRVKCQVRPGISL | not soluble |
| MTEKKIDFKKEEKKFYAPKRKPERIFVPEMNFLMVDGKGDPDGEEYQKAVQSLYAIAYTIKMSKMGETRLDGYSDFVVPPLEGFWWSEGKFDLKDRDAWLWTSILRQPDFVTEEVLEWAKEVARKKKPDVDTSRVKLVRFEEGECVQMMHVGPFSEEVHTVAEMHQFMETEGLRNDTGAIRKHHEIYLSDPRKANPEKMKTILRLPVS | soluble |
| MSLAARRALHFVFKVGNRFQTARFYRDVLGMKVLRHEEFEEGCKAACNGPYDGKWSKTMVGFGPEDDHFVAELTYNYGVGDYKLGNDFMGITLASSQAVSNARKLEWPLTEVAEGVFETEAPGGYKFYLQNRSLPQSDPVLKVTLAVSDLQKSLNYWCNLLGMKIYEKDEEKQRALLGYADNQCKLELQGVKGGVDHAAAFGRIAFSCPQKELPDLEDLMKRENQKILTPLVSLDTPGKATVQVVILADPDGHEICFVGDEAFREGHHHHHH | soluble |
